Measurements: article doi:10.1101/2023.01.26.525693

How the values were obtained:
[1] = molecular target: MDM2_(D.rerio) SWIB domain (zebra fish (Danio rerio)); assay: stopped-flow spectroscopy
[2] = molecular target: MDM2_(L.camtschaticum) SWIB domain (arctic lamprey (Lethenteron camtschaticum)); assay: fluorescence polarisation
[3] = molecular target: MDM2_(M.trossulus) SWIB domain (bay mussel (Mytilus trossulus)); assay: fluorescence polarisation

Row | Kd [1] [nM] | Substance | further results
1 | 1900 | p53TAD_(D.rerio)[14–27] (peptide) | 
2 | 340 | p53TAD_(D.rerio)^N26L (peptide) | 
3 | 2300 | p53TAD_(D.rerio)^insertT[18] (peptide) | 
4 |  | p53TAD_(L.camtschaticum) (peptide) | Kd [2]: 250000 nM
5 |  | p53TAD_(M.trossulus) (peptide) | Kd [3]: 15000 nM
6 | 120 | p73TAD_(D.rerio) (peptide) | 
